Reference: patent publication US20190071490A1 (BETH ISRAEL DEACONESS MEDICAL CENTER, published 2019)

T1: human α-CGRP 1-37 (WT) (human, C-terminal amide; N-terminal biotin when captured on the SA chip; 125I-labelled in the radioligand assay)
T1 construct: also called α-human
T1 peptide: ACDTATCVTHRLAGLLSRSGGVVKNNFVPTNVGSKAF

T2: rat α-CGRP (1-37) (rat, C-terminal amide; N-terminal biotin when captured on the SA chip)
T2 construct: also called rat α (1-37); α-rat
T2 peptide: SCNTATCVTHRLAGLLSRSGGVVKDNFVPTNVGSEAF


Key:
human α-CGRP 1-37 (WT) = biological target: T1, human α-CGRP 1-37 (WT); test: Biacore, 37°C, Fab over CGRP on SA chip
Procedure: (§1) Biacore assay for affinity determination. […] All Biacore assays were conducted in HBS-EP running buffer (10 mM HEPES pH 7.4, 150 mM NaCl, 3 mM EDTA, 0.005% v/v polysorbate P20). CGRP surfaces were prepared by diluting the N-biotinylated CGRP to a concentration of less than 0.001 mg/mL into HBS-EP buffer and injecting it across the SA sensor chip using variable contact times. […] Samples were typically injected for 1 minute at 100 μL/min and dissociation times of at least 10 minutes were allowed. […] An entire titration series (typically generated in duplicate) was fit globally to a 1:1 Langmuir binding model using the BIAevaluation program. This returned a unique pair of association and dissociation kinetic rate constants (respectively, kₒₙ and koff) for each binding interaction, whose ratio gave the equilibrium dissociation constant (KD=koff/kₒₙ). […]

rat α-CGRP (1-37) = biological target: T2, rat α-CGRP (1-37); test: Biacore, 37°C, Fab over CGRP on SA chip
Procedure: as §1

| Binder | Kd (human α-CGRP 1-37 (WT)) | koff (human α-CGRP 1-37 (WT)) | Kd (rat α-CGRP (1-37)) | koff (rat α-CGRP (1-37)) |
| --- | --- | --- | --- | --- |
| G1 variant M16 Fab (Fab, V domains shown, Fab; constant domains as m1) VH: EVQLVESGGGLVQPGGSLRLSCAASGFTFSNYWISWVRQAPGKGLEWVAEIRSESDASATHYAEAVKGRFTISRDNAKNSLYLQMNSLRAEDTAVYYCTSYFDYGLAIQNYWGQGTLVTVSS VL: EIVLTQSPATLSLSPGERATLSCKASKRVTTYVSWYQQKPGQAPRLLIYGASNRYLGIPARFSGSGSGTDFTLTISSLEPEDFAVYYCSQSYNYPYTFGQGTKLEIK | 1.03 nM | 0.000165 s⁻¹ | 55.3 nM | 0.000996 s⁻¹ |
| G1 variant M27 Fab (Fab, V domains shown, Fab; constant domains as m1) VH: EVQLVESGGGLVQPGGSLRLSCAASGFTFSNYWISWVRQAPGKGLEWVAEIRSESDASATHYAEAVKGRFTISRDNAKNSLYLQMNSLRAEDTAVYYCTVYFDYGLAIQNYWGQGTLVTVSS VL: EIVLTQSPATLSLSPGERATLSCKASKNVATYVSWYQQKPGQAPRLLIYGASNRYLGIPARFSGSGSGTDFTLTISSLEPEDFAVYYCSQSYNYPYTFGQGTKLEIK | 2.23 nM | 0.000357 s⁻¹ | 189 nM | 0.00341 s⁻¹ |
| G1 variant M21 Fab (Fab, V domains shown, Fab; constant domains as m1) VH: EVQLVESGGGLVQPGGSLRLSCAASGFTFSNYWISWVRQAPGKGLEWVAEIRSESDASATHYAEAVKGRFTISRDNAKNSLYLQMNSLRAEDTAVYYCSAYFDYGLAIQNYWGQGTLVTVSS VL: EIVLTQSPATLSLSPGERATLSCKASKWVTTYVSWYQQKPGQAPRLLIYGASNRYLGIPARFSGSGSGTDFTLTISSLEPEDFAVYYCSQSYNYPYTFGQGTKLEIK | 1.23 nM | 0.000142 s⁻¹ | 15.2 nM | 0.000695 s⁻¹ |
| G1 variant M26 Fab (Fab, V domains shown, Fab; constant domains as m1) VH: EVQLVESGGGLVQPGGSLRLSCAASGFTFSNYWISWVRQAPGKGLEWVAEIRSESDGSATHYAEAVKGRFTISRDNAKNSLYLQMNSLRAEDTAVYYCTVYFDYGLAIQNYWGQGTLVTVSS VL: EIVLTQSPATLSLSPGERATLSCKASKNVTTYVSWYQQKPGQAPRLLIYGASNRYLGIPARFSGSGSGTDFTLTISSLEPEDFAVYYCSQSYNYPYTFGQGTKLEIK | 0.93 nM | 0.000148 s⁻¹ | 51.3 nM | 0.000924 s⁻¹ |
| G1 variant M30 Fab (Fab, V domains shown, Fab; constant domains as m1) VH: EVQLVESGGGLVQPGGSLRLSCAASGFTFSNYWISWVRQAPGKGLEWVAEIRSKSDESATHYAEAVKGRFTISRDNAKNSLYLQMNSLRAEDTAVYYCTVYFDYGLAIQNYWGQGTLVTVSS VL: EIVLTQSPATLSLSPGERATLSCKASKNVGTYVSWYQQKPGQAPRLLIYGASNRYLGIPARFSGSGSGTDFTLTISSLEPEDFAVYYCSQSYNYPYTFGQGTKLEIK | 3.69 nM | 0.00059 s⁻¹ | 354 nM | 0.00638 s⁻¹ |
| G1 variant M25 Fab (Fab, V domains shown, Fab; constant domains as m1) VH: EVQLVESGGGLVQPGGSLRLSCAASGFTFSNYWISWVRQAPGKGLEWVAEIRSESDASATHYAEAVKGRFTISRDNAKNSLYLQMNSLRAEDTAVYYCTVYFDYGLAIQNYWGQGTLVTVSS VL: EIVLTQSPATLSLSPGERATLSCKASKNVTTYVSWYQQKPGQAPRLLIYGASNRYLGIPARFSGSGSGTDFTLTISSLEPEDFAVYYCSQSYNYPYTFGQGTKLEIK | 1.3 nM | 0.00014 s⁻¹ | 76 nM | 0.0014 s⁻¹ |
| G1 variant M17 Fab (Fab, V domains shown, Fab; constant domains as m1) VH: EVQLVESGGGLVQPGGSLRLSCAASGFTFSNYWISWVRQAPGKGLEWVAEIRSESDASATHYAEAVKGRFTISRDNAKNSLYLQMNSLRAEDTAVYYCTVYFDYGLAIQNYWGQGTLVTVSS VL: EIVLTQSPATLSLSPGERATLSCKASKRVTTYVSWYQQKPGQAPRLLIYGASNRYLGIPARFSGSGSGTDFTLTISSLEPEDFAVYYCSQSYNYPYTFGQGTKLEIK | 1.16 nM | 0.000185 s⁻¹ | 114 nM | 0.00206 s⁻¹ |
| G1 variant M31 Fab (Fab, V domains shown, Fab; constant domains as m1) VH: EVQLVESGGGLVQPGGSLRLSCAASGFTFSNYWISWVRQAPGKGLEWVAEIRSKSDGSATHYAEAVKGRFTISRDNAKNSLYLQMNSLRAEDTAVYYCTVYFDYGLAIQNYWGQGTLVTVSS VL: EIVLTQSPATLSLSPGERATLSCKASKNVGTYVSWYQQKPGQAPRLLIYGASNRYLGIPARFSGSGSGTDFTLTISSLEPEDFAVYYCSQSYNYPYTFGQGTKLEIK | 2.17 nM | 0.000347 s⁻¹ | 201 nM | 0.00361 s⁻¹ |
| G1 variant M29 Fab (Fab, V domains shown, Fab; constant domains as m1) VH: EVQLVESGGGLVQPGGSLRLSCAASGFTFSNYWISWVRQAPGKGLEWVAEIRSESDASATHYAEAVKGRFTISRDNAKNSLYLQMNSLRAEDTAVYYCTVYFDYGLAIQNYWGQGTLVTVSS VL: EIVLTQSPATLSLSPGERATLSCKASKNVGTYVSWYQQKPGQAPRLLIYGASNRYLGIPARFSGSGSGTDFTLTISSLEPEDFAVYYCSQSYNYPYTFGQGTKLEIK | 2.38 nM | 0.00038 s⁻¹ | 199 nM | 0.00359 s⁻¹ |
| G1 variant M32 Fab (Fab, V domains shown, Fab; constant domains as m1) VH: EVQLVESGGGLVQPGGSLRLSCAASGFTFSNYWISWVRQAPGKGLEWVAEIRSKSDHSATHYAEAVKGRFTISRDNAKNSLYLQMNSLRAEDTAVYYCTVYFDYGLAIQNYWGQGTLVTVSS VL: EIVLTQSPATLSLSPGERATLSCKASKNVGTYVSWYQQKPGQAPRLLIYGASNRYLGIPARFSGSGSGTDFTLTISSLEPEDFAVYYCSQSYNYPYTFGQGTKLEIK | 1.69 nM | 0.000271 s⁻¹ | 164 nM | 0.00296 s⁻¹ |

The remaining binders from weak to strong by Kd (human α-CGRP 1-37 (WT)), led by results:

| Kd (human α-CGRP 1-37 (WT)) | koff (human α-CGRP 1-37 (WT)) | Kd (rat α-CGRP (1-37)) | koff (rat α-CGRP (1-37)) | Binder |
| --- | --- | --- | --- | --- |
| 0.93 nM | 0.000148 s⁻¹ | 57.8 nM | 0.00104 s⁻¹ | G1 variant M24 Fab (Fab, V domains shown, Fab; constant domains as m1) VH: EVQLVESGGGLVQPGGSLRLSCAASGFTFSNYWISWVRQAPGKGLEWVAEIRSESDASATHYAEAVKGRFTISRDNAKNSLYLQMNSLRAEDTAVYYCTVYFDYGLAIQNYWGQGTLVTVSS VL: EIVLTQSPATLSLSPGERATLSCKASKLVTTYVSWYQQKPGQAPRLLIYGASNRYLGIPARFSGSGSGTDFTLTISSLEPEDFAVYYCSQSYNYPYTFGQGTKLEIK |
| 0.85 nM | 0.000136 s⁻¹ | 80 nM | 0.00144 s⁻¹ | G1 variant M20 Fab (Fab, V domains shown, Fab; constant domains as m1) VH: EVQLVESGGGLVQPGGSLRLSCAASGFTFSNYWISWVRQAPGKGLEWVAEIRSESDASATHYAEAVKGRFTISRDNAKNSLYLQMNSLRAEDTAVYYCRLYFDYGLAIQNYWGQGTLVTVSS VL: EIVLTQSPATLSLSPGERATLSCKASKWVTTYVSWYQQKPGQAPRLLIYGASNRYLGIPARFSGSGSGTDFTLTISSLEPEDFAVYYCSQSYNYPYTFGQGTKLEIK |
| 0.81 nM | 0.00013 s⁻¹ | 44.4 nM | 0.000799 s⁻¹ | G1 variant M23 Fab (Fab, V domains shown, Fab; constant domains as m1) VH: EVQLVESGGGLVQPGGSLRLSCAASGFTFSNYWISWVRQAPGKGLEWVAEIRSESDASATHYAEAVKGRFTISRDNAKNSLYLQMNSLRAEDTAVYYCTVYFDYGLAIQNYWGQGTLVTVSS VL: EIVLTQSPATLSLSPGERATLSCKASKGVTTYVSWYQQKPGQAPRLLIYGASNRYLGIPARFSGSGSGTDFTLTISSLEPEDFAVYYCSQSYNYPYTFGQGTKLEIK |
| 0.73 nM | 0.000116 s⁻¹ | 61.1 nM | 0.0011 s⁻¹ | G1 variant M22 Fab (Fab, V domains shown, Fab; constant domains as m1) VH: EVQLVESGGGLVQPGGSLRLSCAASGFTFSNYWISWVRQAPGKGLEWVAEIRSESDASATHYAEAVKGRFTISRDNAKNSLYLQMNSLRAEDTAVYYCTAYFDYGLAIQNYWGQGTLVTVSS VL: EIVLTQSPATLSLSPGERATLSCKASKWVTTYVSWYQQKPGQAPRLLIYGASNRYLGIPARFSGSGSGTDFTLTISSLEPEDFAVYYCSQSYNYPYTFGQGTKLEIK |
| 0.62 nM | 9.96e-05 s⁻¹ | 69.4 nM | 0.00125 s⁻¹ | G1 variant M28 Fab (Fab, V domains shown, Fab; constant domains as m1) VH: EVQLVESGGGLVQPGGSLRLSCAASGFTFSNYWISWVRQAPGKGLEWVAEIRSRSDNSATHYAEAVKGRFTISRDNAKNSLYLQMNSLRAEDTAVYYCTVYFDYGLAIQNYWGQGTLVTVSS VL: EIVLTQSPATLSLSPGERATLSCKASKNVDTYVSWYQQKPGQAPRLLIYGASNRYLGIPARFSGSGSGTDFTLTISSLEPEDFAVYYCSQSYNYPYTFGQGTKLEIK |
| 0.44 nM | 7.03e-05 s⁻¹ | 67.8 nM | 0.00122 s⁻¹ | G1 variant M18 Fab (Fab, V domains shown, Fab; constant domains as m1) VH: EVQLVESGGGLVQPGGSLRLSCAASGFTFSNYWISWVRQAPGKGLEWVAEIRSESDASATHYAEAVKGRFTISRDNAKNSLYLQMNSLRAEDTAVYYCVGYFDYGLAIQNYWGQGTLVTVSS VL: EIVLTQSPATLSLSPGERATLSCKASKRVTTYVSWYQQKPGQAPRLLIYGASNRYLGIPARFSGSGSGTDFTLTISSLEPEDFAVYYCSQSYNYPYTFGQGTKLEIK |
